The values below come from patent publication US20110206704A1, “Methods and compositions for modulating hepatocyte growth factor activator” (Genentech, Inc., priority 2009, published 2011).

One experiment concerns the target T1, HGFA (Homo sapiens, UniProt Q04756).
T1 construct: His6 behind an AAA linker) (C); made in house; host or cells: baculovirus - insect cell expression system
T1 sequence (Q04756 373-655): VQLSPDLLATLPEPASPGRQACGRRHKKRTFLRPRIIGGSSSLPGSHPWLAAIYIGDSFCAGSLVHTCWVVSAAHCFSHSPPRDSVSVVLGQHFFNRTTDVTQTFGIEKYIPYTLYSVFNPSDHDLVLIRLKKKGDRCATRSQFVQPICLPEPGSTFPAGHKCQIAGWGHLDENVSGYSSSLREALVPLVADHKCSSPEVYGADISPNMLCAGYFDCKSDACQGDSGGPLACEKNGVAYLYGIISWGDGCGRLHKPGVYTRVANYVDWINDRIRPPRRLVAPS
The experiment can be described thus: Ab40 binding to HGFA in the presence of active site inhibitors (surface plasmon resonance). The conditions noted are these: active site inhibitor present; result in words. The source says:
FIG. 3: Effects of active site inhibitors on antibody binding to HGFA. (a-b, e-f) Surface plasmon resonance (BIAcore) measurements of binding to immobilized antibodies, Ab40 (a-b) or Ab40.ΔTrp (e-f), after co-injection of HGFA (a,e) or HGFA-KQLR (b, f) complex (“KQLR” disclosed as SEQ ID NO: 21). (c) Competition binding (BIAcore) of HGFA to immobilized Ab40 in presence of different concentrations of KD1. (d) Competition binding ELISA measuring binding of HGFA to biotinylated KD1 in the presence of increasing antibody concentrations.
Antibody reformatting and determination of dissociation rate constants to HGFA: Anti-HGFA Fabs were reformatted into human IgG1 by cloning the VL and VH regions of individual clones into LPG3 and LPG4 vector, respectively (Liang et al, 2007). The full-length antibodies were transiently expressed in Chinese Hamster Ovary cells and purified on a protein-A column. […] Association rates (kon) and dissociation rates (koff) were obtained by using a simple one-to-one Langmuir binding model (BIAEvaluation) and the equilibrium dissociation constants (KD) were calculated (koff/kon). […] The values of Req (20-80% of Rmax) were calculated and plotted individually against C (concentration of HGFA or HGFA-KQLR (“KQLR” disclosed as SEQ ID NO: 21)) using BIAEvaluation Software to determine KD at the steady state analysis. […]

Experiment [1] has as its target HGFA (Val373-Ser655 plus tag …) (human) (UniProt Q04756). The experiment can be described thus: cell-based or functional assay.
For experiment [2] the target is unchanged. The experiment can be described thus: SPR (BIAcore), IgG captured by anti-human IgG, HGFA injected.
Experiment [3] deals with T2, HGFA (Val373-Ser655 plus tag …) (human, UniProt Q04756 373-655).
T2 sequence: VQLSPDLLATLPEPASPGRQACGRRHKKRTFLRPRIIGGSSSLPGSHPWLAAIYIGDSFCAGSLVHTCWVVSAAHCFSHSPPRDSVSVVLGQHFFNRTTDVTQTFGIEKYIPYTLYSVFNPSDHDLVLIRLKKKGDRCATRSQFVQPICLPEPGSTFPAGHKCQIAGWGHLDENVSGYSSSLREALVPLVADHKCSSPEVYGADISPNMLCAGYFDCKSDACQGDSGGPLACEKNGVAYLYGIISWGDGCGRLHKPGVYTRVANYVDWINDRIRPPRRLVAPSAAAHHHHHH
The experiment is described as follows: cell-based or functional assay.

The target in experiment [4] is T3, HGFA-KQLR complex (human, UniProt Q04756 373-655, N-terminal acetyl; C-terminal chloromethyl ketone, reacted with Ser195 and His57 of HGFA; Ser195 and His57 (chymotrypsinogen numbering) covalently linked to Ac-KQLR-cmk).
T3 construct: Made by incubating HGFA with a two fold molar excess of Ac-KQLR-cmk for 2 hours, then size exclusion chromatography
The experiment is described as follows: SPR (BIAcore). For orientation: In SPR one partner is held on a chip, and binding of the other changes the refractive index at the surface.

The target of experiment [5] is T2, HGFA (Val373-Ser655 plus tag …). The experiment is described as follows: SPR (BIAcore).
Experiment [6] shares this target. The experiment can be described thus: competition ELISA: plate coated with HGFA, incubated with increasing Ab40, then 1 nM biotinylated KD1 (blocked ligand) detected with streptavidin-HRP. A general note: ELISA stands for enzyme-linked immunosorbent assay.
Experiment [7] addresses T3, HGFA-KQLR complex. The experiment can be described thus: SPR (BIAcore), IgG captured by anti-human IgG, HGFA-KQLR complex injected.
Experiment [8] has as its target T2, HGFA (Val373-Ser655 plus tag …). The experiment can be described thus: SPR (BIAcore), IgG captured by anti-human IgG, HGFA injected.
Experiment [9] deals with T3, HGFA-KQLR complex. The experiment is described as follows: SPR (BIAcore), steady state affinity, IgG captured, HGFA-KQLR complex injected.
Experiment [10] deals with T2, HGFA (Val373-Ser655 plus tag …). The experiment is described as follows: SPR (BIAcore), steady state affinity, IgG captured, HGFA injected.

Where a chain is given by its changes, count along the chain named. * marks the point of attachment. CH2Cl = ClC*

As for `N=C(N)c1ccccc1` [Benzamidine], at HGFA, the “interference with binding of Ab40 to HGFA” value was “did not interfere”.

For “Ac-KQLR-chloromethyl ketone (Ac-KQLR-CH2Cl; SMILES CC(=O)N[C@@H](CCCCN)C(=O)N[C@@H](CCC(N)=O)C(=O)N[C@@H](CC(C)C)C(=O)N[C@@H](CCCNC(=N)N)C(=O)CCl) [Ac-KQLR-cmk]”, the “interference with binding of Ab40 to HGFA” value with HGFA is given as “interfered”.

B1: Ab39 (antibody, from a related filing, human IgG1, V domains shown)
VH: EVQLVESGGGLVQPGGSLRLSCAASGFTFNGTYIHWVRQAPGKGLEWVGGIYPAGGATYYADSVKGRFTISRDNSKNTLYLQMNSLRAEDTAVYYCAKWWAWPAFDYWGQGTLVTVSS
VL: DIQMTQSPSSLSASVGDRVTITCRASQDVSTAVAWYQQKPGKAPKLLIYSASFLYSGVPSRFSGSGSGTDFTLTISSLQPEDFATYYCQQSYTTPPTFGQGTKVEIKR
For the molecule B1, in experiment [1], the Km^app of S-2266 hydrolysis at 1 µM Ab39 (control Km=0.25 mM) is 910 µM and the Vmax^app of S-2266 hydrolysis at 1 µM Ab39 (control Vmax=0.99 µM pNA/min) was 0.97 µM pNA/min. Further, in experiment [2], the Kd (usually a measure of binding affinity in units of concentration) was 10.3 nM; the koff (as a rule, a measure of how fast the partners let go of each other) turned out to be 0.0053 s⁻¹; the kon (as a rule, the rate constant with which the complex forms) worked out at 520000 M⁻¹ s⁻¹.

B2: Ab40 (antibody, V domains shown)
VH: B1 VH with F29I, R72A, N74T, L79A
VL: B1 VL with Y92N, T93R, T94A, P96A
In the case of B2, the “IC50 (read off the curve), HGFA fractional activity vi/vo on S-2266” value in experiment [3] was roughly 8 nM. Besides, the “fold decrease in affinity compared to HGFA” value with HGFA-KQLR complex [4] came to 8 fold. The “fold improvement in binding affinity over Ab39” value in experiment [5] turned out to be 64 fold. The “IC50 (read off the curve)” value in experiment [6] was roughly 1 nM. Besides, in the experiment with HGFA-KQLR complex [7], the Kd worked out at 1.35 nM, the koff worked out at 0.00043 s⁻¹ and the kon came out at 320000 M⁻¹ s⁻¹. Besides, in experiment [8], the Kd was determined as 0.16 nM, the koff was 0.000175 s⁻¹ and the kon was determined as 1.08e+06 M⁻¹ s⁻¹.

B3: Ab40.ΔTrp (antibody, V domains shown)
VH: EVQLVESGGGLVQPGGSLRLSCAASGFTINGTYIHWVRQAPGKGLEWVGGIYPAGGATYYADSVKGRFTISADTSKNTAYLQMNSLRAEDTAVYYCAKWAWPAFDYWGQGTLVTVSS
VL: B1 VL with Y92N, T93R, T94A, P96A
Consider B3, for which the equilibrium dissociation constant (Kd) with HGFA-KQLR complex [9] was found to be 161 nM; in [10] it was 150 nM.
